Measured values reported in publication PMC12101271 (Antibodies, 2025).

Biological target: T1, hemagglutinin (HA) of influenza A/H1N1, in viral protein preparations (Influenza A virus (H1N1); …, UniProt C3W5X2)
T1 construct: source: viral protein preparations from A/H1N1
Experiment: ELISA

B1: VHH 2-C10 (VHH)
VHH: QVQLQESGGGLVQAGGSLRLSCVASGRTFSSYSMAWFRQAPGKEREFVASISWSDINGYYPDSVKGRFTISRDNAKNTVYLQMNSLKPEDTAVYYCAARLGLSNYHYHRVSDYDVWGQGTQVTVSS
notes: also called native VHH 2-C10; source: E. coli TOP10F', culture medium, purified (Ni-NTA agarose)
binding result: binds
